Assay results from the DeepSol protein solubility set.

Assay: soluble on expression in E. coli; label from the status in PepcDB or PDB records

Sequence	soluble on expression in E. coli
MKMTLPFKPHVLALICSAGLCAASAGLYIKSRTVEAPVETQSTQLAVSDAAAVTLPATVSAPPVTPAVVKSAFSTAQIDQWVAPVALYPDALLSQVLMASTYPTNVAQAVQWSHDNPLKQGDAAIQAVSDQPWDASVKSLVAFPQLMALMGENPQWVQNLGDAFLAQPQDVMDSVQRLRQLAQQTGSLKSSTEQKVITTTKKTVPVTQTVTAPVIPSNTVSTANPVITEPATTVISIEPGNPDVVYIPNYNPTVVYGNWANTAYPPVYLPPPAGEPFVDSFVRGFGYSMGVATTYALFSSIDWDDDDHDHHHHDDDNYHHHDGGHRDGNGWQHNGDNINIDVNNFNRITGEHLTDKNMAWRHNPNYRNGVPYHDQDMAKRFHQTDVNGGMSATQLPAPTRDSQRQAAASQFQQRTHAAPVITRDTQRQAAAQRFNEAEHYGSYDDFRDFSRRQPLTQQQKDAARQRYQSASPEQRQAVHEKMQTNPQNQQRREAARERIQPASPEQRQAVREKMQTNPQIQQRRDAARERIQSASPEQRQVFKEKVQQRPLNQQQRDNARQRVQSASPEQRQVFREKVQESRPQRLNDSNHTARLNNEQRSAVRERLSERGARRLER	not soluble
SAENHCELLPPAPSGLGAGLGGGLCRRCSAGMGALAQRPGGVSKWVRLNVGGTYFLTTRQTLCRDPKSFLYRLCQADPDLDSDKDETGAYLIDRDPTYFGPVLNYLRHGKLVINKDLAEEGVLEEAEFYNITSLIKLVKDKIRERDSRISQMPVKHVYRVLQCQEEELTQMVSTMSDGWKFEQLVSIGSSYNYGNEDQAEFLCVVSKELHNTPYGTTSEPSEKAKILQERGSRM	soluble
MGSDKIHHHHHHMRNTDTYSYLVRDGHDLVHDPVPGILGPRPIGWISTCDSSGRPRLQTYSFFGIFNYVPPIVGFASVGGTESVNNAELTGEFAYNLATRPLAGCVNQTIVPALTEMDEFERSGLTKIRSIAIAAPRVAESPVSLECRVTSIQQLNGLDSEALNTWLVLGEVVAVHINRELLCDGFYDTVAAQPILRGGGACDYFEVLQAGKFRMTHPR	not soluble
STQTSRVTLVGEMLPAYNEILTPEALSFLKELHENFNERRIELLQKRMKKQQKIDAGEFPKFLEETKRIREADWTIAKLPKDLEDRRVEITGPVDRKMVINALNSGAHLFMADFEDSNSPTWENAIEGQINLRDAVKGTISHKNENGKEYRLNSKTAVLIVRPRGWHLEEKHMQVDGKNMSGSLVDFGLYFFHNAKALLEKGSGPYFYLPKMESYLEARLWNDVFVFAQKYIGIPNGTIKATVLLETIHASFEMDEILYELKDHSAGLNCGRWDYIFSFLKAFRNHNEFLLPDRAQVTMTAPFMRAYSLKVIQTCHRRNAPAIGGMAAQIPIKNNPEANEAAFEKVRADKEREALDGHDGTWVAHPGLVPVAMEVFNHIMKTPNQIFRKREEIHVTEKDLLEVPVGTITEEGLRMNISVGIQYIASWLSGRGAAPIYNLMEDAATAEISRAQVWQWIRHEGGKLNDGRNITLELMEELKEEELAKIEREIGKEAFKKGRFQEATTLFTNLVRNDEFVPFLTLPGYEIL	soluble
MTQVSIIVPVLNEESTIHSAVSRLCRDFPDCELIVVDGGSTDATAELAALHATVIGSERGRAKQMNEGARHASGGILWFIHADTAIEPEALGQIRSVLADPAVVAGGLTLRFDRRTPALNYLAWTSNARARRLHHIFGDQAMFIRRTAFDELGGFPDLAIMEDLEMSRRLHRRGPLRLLPATSTASSRRLTAHGTWRMIAFMQYLKLLYFAGADPEAIRARYTAGPRLFPKRNPATLEHHHHHH	not soluble
MGSDKIHHHHHHMLGINRKLEQLESDGTIIRVGLVGAGQMGRGMVSQIESMKGMRVVVTADIVLENVKLAYERAGVPKDEVIETDEISKAADAIQAGKVVATGDAELVTALSEVDVVVDATGIPNIGAKIAWDAILNKKHIVMLNVEADVTVGPLLKQMADACGVVYTGSAGDEPGAVMELYDFADALGFEVVALGKGKNNPLNVEANPQTAAEEAKRKGASPKMLASFQDGTKTMVEMTAVANATGFLPDKPGMNGFVGTVEELPAIFRRKEEGGQVENERIVEYINGVAPGVFAIVKSDKEEVNHEMTYLSMGEGPNYVLYRPYHLTSLETPISIARAHLYHEATIAPWQGLQAETVAVAKKDLAAGEFLDSIGGFTVYGTILTVTDAKEKGALPIGLVDAHVQVKRPIKKGEIITYDDVEQKKESTIWRLRRIQDETLVGKRELEAKV	not soluble
MKMMDANEIISFIQKSEKKTPVKVYIKGDLKEVTFPETVQAFVNKKSGVLFGEWSEIKTILDENSKYIVDYVVENDRRNSAIPMLDLKGIKARIEPGAIIRDHVEIGDNAVIMMNATINIGAVIGEGSMIDMNAVLGGRATVGKNCHVGAGAVLAGVIEPPSAKPVIVEDDVVIGANVVVLEGVTVGKGAVVAAGAVVTEDVPPYTVVAGTPARVIKEIDEKTKAKTEIKQELRQLNPEK	not soluble
MSLSKFVLGGLWPETGSLAYLAPPELAAEKLAVKDINDAGGVLGNKITTVDADTSDADHADQNTSAAQSVLSKNPSFIIGPASSSVVKNTYKSITSQNIPMLSMGATSASFSGLSDYFFRTVAPDTVQGAVMGNLIAQDGVQKLAIAVFNDEYGTGLRDTIVKTASAAGVDIIYGEKDTFDPTETNFSSIATAIKASNPDATLVIAFDQTKPLLKALASAGVNTKKLYFVDGNTSDYSSELDAGLLEGSKGTIPGINPSDDFVKRLESTGVDLKNTTTYGAETYDGIILAALAAQKGGSADGKTIQANMAAVSGSTKGEKCDSYKACVALLKDGKEIQYKGQTSIGAFNDAHDPSSASIGVYKYDADNKPVFDHSQEGSVPKAEGHHHHHH	soluble
MAHHHHHHMMSNTTSSGKGPTTFMWNSVPPSGDMPLHGCCHSLANYKDEQLILFGGGALHIIFNDVYCFDLKTSTWSYKETTNSEIVAPRISHSAVVHEDKMYVYGGQDLYMPTRFADVLVLDLITFTWSLIQQQATPAPDGPGDRRLHTAHIYRNCMYVLMGEPCNISNSFWFLDLTTLEWHPVHSSGWFGKPILPLLGHSAQVEGDYLYVFGGYHADSARRNGSPVYNNSLFSYHFPSNTWREVVPSSGPRPSPRYASAMAVIRGRVFIYGGDVDGEVYFDDFWCIDTNIPSSAASQSSSSSSYTTSLVAAPPAASSRWIDITLSCGRGRPSARSGHASAVAQGCLFVVGGELPGDRDVVYYSNRTYRYPLGYLTRLSLVELSSLWLAKCNPANIWMLDTQIPRHVRQLLVRNLNAQDRESTDDMMPCTRVVC	not soluble
MGNINSLFTTNPSEILPVEVYLNDLSCDAVENLGSTRFMKVARGRTHEGVFVYKVFVRQDLASLDPFPQRIIDIRKALMKSPNCCPIKKVLVKQKYAVMVRAFQKHTLFDRLSTRPFVVEAEKMWYIFLLFKALSQCETAGVCHGDLKSQNVLISSTNWLQITDFAPFKPCFLTHDNPSSFTFFFDTSRRQSCYIAPERFISATEYDEKLRDGQDEWLFGSLTPKMDMFSAGCIVFELLCDRPPFTYSSLCEYRSMNDADAGNMLLRLIQDVPAPYRPLLRLLLNRDPSFRISANAVLTGAALKFPHILESFLFKYLDRFRPLYGTSTSSDPSTDDFSQALEFSYLEPDDVITKLKREKQLWWARLSENDESKSFAFLFVSLITANLRALRTIQGKTDAIRMLVELSTISDSSVAIDRILPYFVHLWMDPETQVRATAVTAVAELLAPIQPKTYEESLVFVDYLFPHLNSMSNDSIDSPQHVLFAIATSLGQFADTAYRFYMAGREIRQATMYDDEVSTAGEQQQNDDAGALLHGVSAMFSALCSKEPMVKRCLVESKSLILLYHFFIKIGNDDTLLRFLCTFLNAKTEWRLRAAFFDSLPVCVQKRSEGMVPLLQLGLQDGEEHVVVRALGCIHILIKNENLDKMSVKKLLDDVLPFLVHPNDWIRSTVCDILLAIDCQWHNAEVHVKLIPLVSPFVEESKRGVLTLKSKPVLMSQLVDPIPRTTFNQIIDQSLENTKQITMLLEIHFQTGKPFEAGAGWFNTIFPKIKTETKAGVVEHNDLKAALEARKRLTASVYSFRKLFERMAETRNTAGMEIYLTRQLGTIDLSSIAHSRVRRKEFTYGGDESAMSSNSKHLTAINIPNHSTERRDTLLLAGEVVIEEERTVTNTPAPYSPVKNTTFDNQVNEMLAHLNELHMRNVNCRPKRPLAASASHPVLSASPSAGSLGSSSNNNVKGIIITHLHEHSGKITKLCANRESDLFLSGSTDGTVKVWKTRSVLGEGYGSARSEDTWIPTETSREKVNSVGWNDQFACSATNDGFVRWADVGQGSARVATQVRIPDAEGPPVYLHCNGPMAIVRTHHGVLYGIDLRVGASEGPLKRHDIWRKKFQESHGLVTSSAIDPWQQSWMVIGNNSGQKNLVLYDLRFKEEVLRWESPHQNTQPNRVWANPVSRQECPEVFVGFSMHGEISTYELSAQPLRKRVFWTGGAPILSYSAASNDARKQDSLATRSLCVCEKTGVVYTGDTRGAIRKWNPTRAVGCEIISAPPKGRTAYRTIFEENDTSTAPSGASTDPFVIYERTVLDTEAKENQKVVPLDSKPSTYHRTPITDMMLLNSELLVSSGYDGVIKIWK	not soluble
MHHHHHHSENTFIFPATFMWGTSTSSYQIEGGTDEGGRTPSIWDTFCQIPGKVIGGDCGDVACDHFHHFKEDVQLMKQLGFLHYRFSVAWPRIMPAAGIINEEGLLFYEHLLDEIELAGLIPMLTLYHWDLPQWIEDEGGWTQRETIQHFKTYASVIMDRFGERINWWNTINEPYCASILGYGTGEHAPGHENWREAFTAAHHILMCHGIASNLHKEKGLTGKIGITLNMEHVDAASERPEDVAAAIRRDGFINRWFAEPLFNGKYPEDMVEWYGTYLNGLDFVQPGDMELIQQPGDFLGINYYTRSIIRSTNDASLLQVEQVHMEEPVTDMGWEIHPESFYKLLTRIEKDFSKGLPILITENGAAMRDELVNGQIEDTGRQRYIEEHLKACHRFIEEGGQLKGYFVWSFLDNFEWAWGYSKRFGIVHINYETQERTPKQSALWFKQMMAKNGF	soluble
MRGSHHHHHHTDPALRATQKNFVELRNVTKRFGSNTVIDNINLTIPQGQMVTLLGPSGCGKTTILRLVAGLEKPSEGQIFIDGEDVTHRSIQQRDICMVFQSYALFPHMSLGENVGYGLKMLGVPRAELKARVKEALAMVDLEGFEDRFVDQISGGQQQRVALARALILKPKVLLFDEPLSNLDANLRRSMRDKIRELQKQFDITSLYVTHDQSEAFAVSDTVLVMNKGHIMQIGSPQDLYRQPASRFMASFMGDANLFPATFSDGYVDIYGYHLPRPLHFGTQGEGMVGVRPEAITLSDRGEESQRCVIRHVAYMGPQYEVTVEWHGQEILLQVNATRLQPDVGEQYYLEIHPYGMFVLADAAGLCGR	soluble
MSTGKIQFAEQNGSFVLKFVGEVRLTLCSALDSTIEKIFAALNFSAIIIDLTETQSIDSTTLGLLAKLSILSRQKIGLLPTLVTTNPDITRLLQSMGFDQVFNIVDRPIPCPECLSDLPPQDQSEDVVRDKVLEAHRILMGLNESNREAFHDLVSALERH	not soluble
MSDTPKYTQDQVIAIKNRILEALETVIDPELGIDVVNLGLIYEIRFNDNGYTEIDMTLTTMGCPLADLLTDYIHDALQDVPEVTKTEVKLVWYPAWTVDKMSRYARIALGIR	not soluble
MSLTKILIGQTAGFTGPAGEQVKEMTRGAQLYLDAVNRAGGVYGRRIELISEDDGFDANVSKQRAHTLLTDKQVFALFLSRGTPNTEAIMSEAHAVGAPMVAPSTGASIFFDRPDPLVFVVRAKYQTEIAELVHHFETLGLKRLALVNVNDSFGKDTEAGFTTATQHLPPSTHQIVTVDRLKPNIETATAEIGKFAPNAVILACAGTTAQALAEALTKHGTVSQMATLSNNSSTAFARSLGNMARGMMVTQVMPSPVRATSPIGRELTASAKAAGVMPSYGMMEGYASAKLLVEGLKRAGKAPTRASFVAGLEAAGTIDLGGLDIRNGRNNHKGSSFVEITVIGPHGTFIKEGHHHHHH	not soluble
